Tests used:
[1] = target: T1, human CD47 (human, UniProt Q08722 19-323); test: flow cytometry, titration of SIRPα-Fc-bio on Jurkat cells
[2] = target: T1, human CD47; test: cell-based or functional assay

| EC70 [1] [µg/mL] | phagocytosis of Raji tumor cell line targets by primary human macrophages (EC50) [2] [µg/mL] | Molecule |
| --- | --- | --- |
| 7.5 | – | biotinylated fusion protein of SIRPα (SIRPα-Fc-bio) (Fc fusion) |
| – | ~0.3 | anti-CD47 antibody 2.3D11 (antibody, V domains shown) VH: QVQLQESGPGLVKPSGTLSLTCAVSGVSIRSINWWNWVRQPPGKGLEWIGEIYHSGSTNYNPSLKSRVTISVDKSKNQFSLKLNSVTAADTAVYYCARDGGIAVTDYYYYGLDVWGQGTTVTVSS VL: EIVLTQSPATLSLSPGERATLSCRASESVSSNLAWYQQKPGQAPRLLIYGAFNRATGIPARFSGSGSGTDFTLTISSLEPEDFAVYYCQQRSDWFTFGGGTKVEIKR |
